T1: recombinant tetanus toxin fragment C (rTTC) (Clostridium tetani, UniProt P04958 865-1315)
T1 sequence: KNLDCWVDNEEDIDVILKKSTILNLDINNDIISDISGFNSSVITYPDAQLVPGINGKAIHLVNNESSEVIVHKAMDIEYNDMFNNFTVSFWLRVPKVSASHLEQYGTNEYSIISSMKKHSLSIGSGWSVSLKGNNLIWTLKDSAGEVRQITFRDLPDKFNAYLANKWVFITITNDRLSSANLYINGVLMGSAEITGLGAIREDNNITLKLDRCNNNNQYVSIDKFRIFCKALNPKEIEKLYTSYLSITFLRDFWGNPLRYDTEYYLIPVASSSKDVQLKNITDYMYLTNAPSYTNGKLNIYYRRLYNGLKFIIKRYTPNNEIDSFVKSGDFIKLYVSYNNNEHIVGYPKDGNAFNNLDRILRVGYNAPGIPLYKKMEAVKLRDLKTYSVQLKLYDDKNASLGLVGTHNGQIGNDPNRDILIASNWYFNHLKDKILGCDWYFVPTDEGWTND


Key:
human serum albumin [1] = target: T2, human serum albumin (human, UniProt P02768 25-609); experiment: ELISA, E. coli supernatant
T2 construct: mature; also called human Alb

horse serum albumin = target: T3, horse serum albumin (horse, UniProt P35747 25-607); experiment: ELISA, coated albumin, E. coli supernatant
T3 construct: mature; also called horse Alb; Equine albumin

dog serum albumin = target: T4, dog serum albumin (dog, UniProt P49822 25-608); experiment: ELISA, coated albumin, E. coli supernatant
T4 construct: mature; also called dog Alb; Canine albumin

human serum albumin [2] = target: T2, human serum albumin; experiment: ELISA, coated albumin, E. coli supernatant
[3] = target: T5, tetanus neurotoxin (TeNT), authentic tetanus holotoxin (Clostridium tetani, UniProt P04958 2-1315); experiment: competition ELISA on TeNT, binder biotinylated; competitor SVT13L
[4] = target: T5, tetanus neurotoxin (TeNT), authentic …; experiment: competition ELISA on TeNT, binder biotinylated; competitor mAb 6E7
[5] = target: T5, tetanus neurotoxin (TeNT), authentic …; experiment: competition ELISA on TeNT, binder biotinylated; competitor SVT15L
[6] = target: T1, recombinant tetanus toxin fragment C …; experiment: ELISA, directly coated rTTC, unlabelled binder
[7] = target: T5, tetanus neurotoxin (TeNT), authentic …; experiment: GT1b-TeNT inhibition ELISA, EC at A450 0.59
[8] = target: T5, tetanus neurotoxin (TeNT), authentic …; experiment: competition ELISA on TeNT, binder biotinylated; competitor SVT34L
[9] = target: T5, tetanus neurotoxin (TeNT), authentic …; experiment: GT1b-TeNT inhibition ELISA, unlabelled binder
[10] = target: T5, tetanus neurotoxin (TeNT), authentic …; experiment: competition ELISA on TeNT, binder biotinylated; competitor SVT15L-3FW4M
[11] = target: T5, tetanus neurotoxin (TeNT), authentic …; experiment: competition ELISA on TeNT, binder biotinylated; competitor SVT16L
[12] = target: T5, tetanus neurotoxin (TeNT), authentic …; experiment: competition ELISA on TeNT, binder biotinylated; competitor mAb 14F5
[13] = target: T5, tetanus neurotoxin (TeNT), authentic …; experiment: competition ELISA on TeNT, binder biotinylated; competitor SVT06L
[14] = target: T5, tetanus neurotoxin (TeNT), authentic …; experiment: competition ELISA on TeNT, binder biotinylated; competitor mAb 6F57
[15] = target: T5, tetanus neurotoxin (TeNT), authentic …; experiment: competition ELISA on TeNT, binder biotinylated; competitor SVT22L
[16] = target: T5, tetanus neurotoxin (TeNT), authentic …; experiment: competition ELISA on TeNT, binder biotinylated; competitor SVT08L
[17] = target: T5, tetanus neurotoxin (TeNT), authentic …; experiment: ELISA, TeNT captured with cAb-TT2, unlabelled binder
[18] = target: T5, tetanus neurotoxin (TeNT), authentic …; experiment: ELISA, directly coated TeNT, biotinylated binder
[19] = target: T1, recombinant tetanus toxin fragment C …; experiment: ELISA, rTTC captured with coated mAb 6E7
[20] = target: T5, tetanus neurotoxin (TeNT), authentic …; experiment: competition ELISA on TeNT, binder biotinylated; competitor SVT02L
[21] = target: T5, tetanus neurotoxin (TeNT), authentic …; experiment: competition ELISA on TeNT, binder biotinylated; competitor mAb 11n185
[22] = target: T5, tetanus neurotoxin (TeNT), authentic …; experiment: ELISA, directly coated TeNT
[23] = target: T5, tetanus neurotoxin (TeNT), authentic …; experiment: ELISA, TeNT captured with coated mAb 6E7
[24] = target: T5, tetanus neurotoxin (TeNT), authentic …; experiment: ELISA, directly coated TeNT, unlabelled binder
[25] = target: T5, tetanus neurotoxin (TeNT), authentic …; experiment: competition ELISA on TeNT, binder biotinylated; competitor SVT03L
[26] = target: T5, tetanus neurotoxin (TeNT), authentic …; experiment: ELISA, TeNT captured with cAb-TT2, biotinylated binder
dog albumin (dog Alb) [27] = target: T6, dog albumin (dog Alb) (dog, UniProt P49822 25-608); experiment: ELISA: coated dog Alb, anti-his6 PO
T6 construct: also called Canine albumin

dog albumin (dog Alb) [28] = target: T6, dog albumin (dog Alb); experiment: ELISA: coated dog Alb, anti-his6 PO; remark: listed apart in the source

Row | Binder | binding result (human serum albumin [1]) | absorbance at 450 nm (horse serum albumin) | absorbance at 450 nm (dog serum albumin) | absorbance at 450 nm (human serum albumin [2]) | % inhibition of binding [3] | % inhibition of binding [4] | % inhibition of binding [5] | maximal absorbance at 450 nm [6] | concentration giving A450 of 0.59 [7] | % inhibition of binding [8] | minimal absorbance at 450 nm [9] | % inhibition of binding [10] | % inhibition of binding [11] | % inhibition of binding [12] | % inhibition of binding [13] | % inhibition of binding [14] | % inhibition of binding [15] | % inhibition of binding [16] | EC resulting in A450 0.15 [17] | maximal absorbance at 450 nm [17] | other results
1 | SVA06 (VHH) VHH: QVQLQESGGRLVQAEDSLRLSCAASGRTFVSYDMGWFRQAPGKEREFVAAINWRGYTTDYVDSVKGRFFISRDIAKSTVYLQMNNLKPEDTAVYYCAARQMSGSSRYSPPGRVGYDFWGQGTQVTVSS | no binding | 1.66 A450 | 1.99 A450 | 0.067 A450 | – | – | – | – | – | – | – | – | – | – | – | – | – | – | – | – | –
2 | SVT16L (VHH) VHH: QVQLQESGGGSVQAGDSLRLSCAASGRTISNYAMGWFRQAPGKQREFVAAISRSDNTYYTDSVKGRFTISRDNAKNTLYLQMNSLKPEETAVYYCAADPNLMYESKWKYRALEAWGQGTLVTVSS | – | – | – | – | 96% | 6% | 12% | 1.01 | 0.047 µg/mL | 95% | 0.129 | 17% | 95% | 6% | -8% | 2% | 96% | 2% | 3.2 ng/mL | 0.363 | EC resulting in A450 0.4 [18]: 0.52 ng/mL; maximal absorbance at 450 nm [18]: 1.42; absorbance at 450 nm [19]: 1.38; % inhibition of binding [20]: 13%; % inhibition of binding [21]: -2%; absorbance at 450 nm [22]: 1.27; absorbance at 450 nm [23]: 1.13; EC resulting in A450 0.2 [24]: 1.1 ng/mL; maximal absorbance at 450 nm [24]: 1.57; % inhibition of binding [25]: -1%; EC resulting in A450 0.2 [26]: 1.6 ng/mL; maximal absorbance at 450 nm [26]: 0.971
3 | SVT15L-3FW4M (VHH) VHH: QVQLQESGGGLVQTGGSLRLSCRASGRAFANYHFGWFRQAPGKDREFVASISWKGGSTYYANFALGRFTSSVDRAESSVYLQMSGLTPEDTATYYCAAHDGGDWNYHTGMDYWGQGTQVTVSS | – | – | – | – | -5% | 6% | 96% | 0.206 | 0.039 µg/mL | 3% | 0.127 | 95% | 3% | 2% | 7% | 6% | 4% | 6% | 9.8 ng/mL | 0.195 | EC resulting in A450 0.4 [18]: 2 ng/mL; maximal absorbance at 450 nm [18]: 1.37; absorbance at 450 nm [19]: 0.528; % inhibition of binding [20]: 10%; % inhibition of binding [21]: -1%; absorbance at 450 nm [22]: 0.477; absorbance at 450 nm [23]: 0.236; EC resulting in A450 0.2 [24]: 3.8 ng/mL; maximal absorbance at 450 nm [24]: 0.817; % inhibition of binding [25]: -8%; EC resulting in A450 0.2 [26]: 3.5 ng/mL; maximal absorbance at 450 nm [26]: 0.697
4 | SVT16-L123Q-GS2-SVA12M2-H6 (bispecific antibody) QVQLQESGGGSVQAGDSLRLSCAASGRTISNYAMGWFRQAPGKQREFVAAISRSDNTYYTDSVKGRFTISRDNAKNTLYLQMNSLKPEETAVYYCAADPNLMYESKWKYRALEAWGQGTQVTVSSGGGGSGGGSEVQLVESGGGLVQAGGSLRLSCAASGRTFSYYPMAWFRQAPGQEREFVAAIIGADTTYYADSLKGRFTISRDNAKNMVYLQMNSLKPEDTAVYYCAARNTYWSDVYYREGQYTNWGQGTQVTVSSHHHHHH | – | – | – | – | – | – | – | – | – | – | – | – | – | – | – | – | – | – | – | – | maximal absorbance value (dog albumin (dog Alb) [27]): 1.78 A450; Effective SDA Concentration at A450 0.2 (dog albumin (dog Alb) [28]): 34 ng/mL
5 | SVA02 (VHH, not shown: large carriers) VHH: QVQLQQSGGGLVQAGGSLRLSCAASGRFFSRQVMGWFRQAPGKDREFVGVISWDNGVTFYSDSVKGRFTMSREIAKKTVHLQMNSLKPEDTAVYYCAAGNALHSRYYSPSKYDYWGPGTQVTVSS | no binding | 1.9 A450 | 1.87 A450 | 0.065 A450 | – | – | – | – | – | – | – | – | – | – | – | – | – | – | – | – | –
6 | SVA16 (VHH, not shown: large carriers) VHH: QVQLQESGGGVVQAGGSLRLSCAASGRTVSSSAMGWFRLAPGKEREFVVGISRSGGSIFYADSVKGRFTISRKNAKNTVDLQMNSLKPEDTAVYYCAAGYRPGYGDYGRVFYREDEYDDWGQGTQVTVSS | no binding | 2.11 A450 | 2.02 A450 | 0.083 A450 | – | – | – | – | – | – | – | – | – | – | – | – | – | – | – | – | –

Source: US20240376185A1 (SMIVET B V, published 2024)
